Reference: patent US20160304573A1, “FIBROMODULIN PEPTIDE” (The Regents of the University of California, priority 2010, published 2016)

How the values were obtained:
Assay type in all cases: cell-based
Rat-2 cells [1] = test: Rat-2 cell migration/invasion in Matrigel, DAPI nuclear staining
Description: Cell migration/invasion in Matrigel was documented at 200× magnificent after 24 hour treatment and quantitated using DAPI nuclear staining (results shown in FIG. 19A and repeat results in FIGS. 26B and 26C; DAPI pictures are shown in FIG. 19D).
Similar to FMOD (whole protein), the effect of FMOD peptides and/or TGF-β on cell migration was also evaluated by scratching method (FIGS. 18C and 25D). At the same time, cell migration/invasion in Matrigel was documented at 100× magnificent after 24 hour treatment and quantitated using DAPI nuclear staining (100 rather than 200× magnification was used because one group's invasion is quite low) (see the results in FIG. 20A and DAPI pictures in FIG. 20B). Passage 18 Rat-2 cells (20,000 cells/well) were used for the test under the treatment of 100 pM TGF-β1 (SEQ ID NO:64)/133 (SEQ ID NO:66) with/without 200 nM FMOD-F07-40C in DMEM-0.5% FBS.
Passage 18 Rat-2 cells (20,000 cells/well) were used for the test under the treatment of 100 pM TGF-β1/β3 with/without 200 nM FMOD-F06-40C in DMEM-0.5% FBS (FIG. 20C).

Rat-2 cells [2] = test: H&E morphology of Rat-2 cells
Description: Exemplary tests were performed to better delineate cell morphology.

[3] = system: α-smooth muscle actin (α-SMA) expression; test: α-SMA expression staining
Description: Exemplary tests on effects of FMOD and TGF-β or FMOD peptides and TGF-β on α-SMA expression were performed and shown in FIGS. 25A-25D. Expression levels of α-SMA, which is a marker for the transition of fibroblasts to myofibroblasts, were measured and presented in staining in these figures.

[4] = 100 pM TGF-β1 and 200 nM FMOD combined treatment
[5] = 100 pM TGF-β1+200 nM Fibromodulin, FIG. 25D

B1: FMOD: recombinant human fibromodulin whole protein (SEQ ID NO:1) produced in CHO-K1 (protein, listed as Homo sapiens)
chain: MQWTSLLLLAGLFSLSQAQYEDDPHWWFHYLRSQQSTYYDPYDPYPYETYEPYPYGVDEGPAYTYGSPSPPDPRDCPQECDCPPNFPTAMYCDNRNLKYLPFVPSRMKYVYFQNNQITSIQEGVFDNATGLLWIALHGNQITSDKVGRKVFSKLRHLERLYLDHNNLTRMPGPLPRSLRELHLDHNQISRVPNNALEGLENLTALYLQHNEIQEVGSSMRGLRSLILLDLSYNHLRKVPDGLPSALEQLYMEHNNVYTVPDSYFRGAPKLLYVRLSHNSLTNNGLASNTFNSSSLLELDLSYNQLQKIPPVNTNLENLYLQGNRINEFSISSFCTVVDVVNFSKLQVLRLDGNEIKRSAMPADAPLCLRLASLIEI
For B1, the “cell migration/invasion in Matrigel” value (Rat-2 cells [1]; 200 nM combined with 100 pM TGF-β1, 24 hour treatment) was “induced significant migration”, the “cell migration/invasion in Matrigel” value (Rat-2 cells [1]; 200 nM combined with 100 pM TGF-β3, 24 hour treatment) was “decreased TGF-β3 mediated inhibition of migration” and the “cell migration/invasion in Matrigel” value (Rat-2 cells [1]; alone (200 nM FMOD or peptide, or 100 pM TGF-β), 24 hour treatment) was “induced Rat-2 moderate migration”. For the same molecule, the “cell density (H&E)” value (Rat-2 cells [2]; [4]) was “significantly increased cell density”, the nodule size (Rat-2 cells [2]; [4]) was “increased nodule size” and the nodule number (Rat-2 cells [2]; 100 pM TGF-β1 and 200 nM FMOD combined treatment, 8-well chamber slides) was “about four”. For the same molecule, the “cell morphology (H&E)” value (Rat-2 cells [2]; 200 nM FMOD alone, FIG. 22) was “flat, spread-out Rat-2 cell morphology”, the “cell aggregation/density (H&E)” value (Rat-2 cells [2]; mono-treatment (200 nM FMOD or 100 pM TGF-β1), relative to controls) was “lower cell aggregation/density relative to controls” and the cell density/cell aggregation [3, 5] was “increased cell density/cell aggregation”. For the same molecule, the α-SMA staining [3, 5] was “significantly increased α-SMA staining” and the α-SMA staining ([3]; mono-treatment (200 nM FMOD or 100 pM TGF-β1), FIGS. 25B, 25C) was “minimal α-SMA staining”.
